B1: S-tagged human asporin D13: mature S-tagged human asporin D13 synthesized cell-free from pET29b-ASP13, lysines biotinylated (protein)
chain: DMEDTDDDDDDDDDDDDDEDNSLFPTREPRSHFFPFDLFPMCPFGCQCYSRVVHCSDLGLTSVPTNIPFDTRMLDLQNNKIKEIKENDFKGLTSLYGLILNNNKLTKIHPKAFLTTKKLRRLYLSHNQLSEIPLNLPKSLAELRIHENKVKKIQKDTFKGMNALHVLEMSANPLDNNGIEPGAFEGVTVFHIRIAEAKLTSVPKGLPPTLLELHLDYNKISTVELEDFKRYKELQRLGLGNNKITDIENGSLANIPRVREIHLENNKLKKIPSGLPELKYLQIIFLHSNSIARVGVNDFCPTVPKMKKSLYSAISLFNNPVKYWEMQPATFRCVLSRMSVQLGNFGM
modifications: left off: small tags and cut ends
notes: mature S-tagged human asporin D13 synthesized cell-free from pET29b-ASP13, lysines biotinylated
B2: S-tagged human asporin D14: mature S-tagged human asporin D14 synthesized cell-free from pET29b-ASP14, lysines biotinylated (protein)
chain: DMEDTDDDDDDDDDDDDDDEDNSLFPTREPRSHFFPFDLFPMCPFGCQCYSRVVHCSDLGLTSVPTNIPFDTRMLDLQNNKIKEIKENDFKGLTSLYGLILNNNKLTKIHPKAFLTTKKLRRLYLSHNQLSEIPLNLPKSLAELRIHENKVKKIQKDTFKGMNALHVLEMSANPLDNNGIEPGAFEGVTVFHIRIAEAKLTSVPKGLPPTLLELHLDYNKISTVELEDFKRYKELQRLGLGNNKITDIENGSLANIPRVREIHLENNKLKKIPSGLPELKYLQIIFLHSNSIARVGVNDFCPTVPKMKKSLYSAISLFNNPVKYWEMQPATFRCVLSRMSVQLGNFGM
modifications: left off: small tags and cut ends
notes: mature S-tagged human asporin D14 synthesized cell-free from pET29b-ASP14, lysines biotinylated
B3: D16: asporin having D-repeat number of 16, transiently expressed (protein)
chain: AKPFFSPSHIALKNMMLKDMEDTDDDDDDDDDDDDDDEDNSLFPTREPRSHFFPFDLFPMCPFGCQCYSRVVHCSDLGLTSVPTNIPFDTRMLDLQNNKIKEIKENDFKGLTSLYGLILNNNKLTKIHPKAFLTTKKLRRLYLSHNQLSEIPLNLPKSLAELRIHENKVKKIQKDTFKGMNALHVLEMSANPLDNNGIEPGAFEGVTVFHIRIAEAKLTSVPKGLPPTLLELHLDYNKISTVELEDFKRYKELQRLGLGNNKITDIENGSLANIPRVREIHLENNKLKKIPSGLPELKYLQIIFLHSNSIARVGVNDFCPTVPKMKKSLYSAISLFNNPVKYWEMQPATFRCVLSRMSVQLGNFGM
B4: D17: asporin having D-repeat number of 17, transiently expressed (protein)
chain: B3 chain
B5: biglycan: SLRP family proteoglycan used as the negative control for collagen binding (protein, UniProt P21810 38-368, looked up)
Biglycan: DEEASGADTSGVLDPDSVTPTYSAMCPFGCHCHLRVVQCSDLGLKSVPKEISPDTTLLDLQNNDISELRKDDFKGLQHLYALVLVNNKISKIHEKAFSPLRKLQKLYISKNHLVEIPPNLPSSLVELRIHDNRIRKVPKGVFSGLRNMNCIEMGGNPLENSGFEPGAFDGLKLNYLRISEAKLTGIPKDLPETLNELHLDHNKIQAIELEDLLRYSKLYRLGLGHNQIRMIENGSLSFLPTLRELHLDNNKLARVPSGLPDLKLLQVVYLHSNNITKVGVNDFCPMGFGVKRAYYNGISLFNNPVPYWEVQPATFRCVTDRLAIQFGNYKK

Experiments:
[1] = tested on: ATDC5 cells; experiment: MTT assay of ATDC5 cell growth; assay type: cell-based, mouse; conditions: added alone, medium 1-2
Description: ATDC5 was inoculated to a 12-well plate at 0.4×10^5 cells/well, and cultured using the medium 1-2 described in Example 19 for 24 hours, after which asporin and bFGF were added, and MTT assay was performed over time as described below. Specifically, the medium was removed by suction, the 1 mg/ml MTT reagent (DOJINDO) dissolved in DMEM/F12 was added at 1 ml/well, and the plate was incubated in a CO2 incubator for 1 hour. The supernatant was removed by suction, a Lysis reagent (86% isopropanol, 40 mM HCl, 1% SDS) was added to the plate at 0.2 ml/well, and extraction was performed at room temperature for 5 minutes. This extract was transferred to a 96-well plate, and OD550 was measured using a plate reader.

[2] = biological target: TGF-β1 (Homo sapiens, UniProt P01137); experiment: Binding assay of asporin and TGF-β by pull-down assay method; conditions: S-Protein agarose precipitate, Western blotting
Sequence of TGF-β1 (P01137 279-390 limits assumed, species assumed): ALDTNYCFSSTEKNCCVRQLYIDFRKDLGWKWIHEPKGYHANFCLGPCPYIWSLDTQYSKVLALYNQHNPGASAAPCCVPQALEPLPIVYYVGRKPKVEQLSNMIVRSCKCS
Description: With the pET29b-ASP13 and pET29b-ASP14 thus prepared as the templates, S-tagged human asporin D13 and D14 were prepared by performing a reaction in the presence of Transcend™ Biotin-Lysyl-tRNA using TNT Quick Coupled Transcription/Translation Systems (Promega). A reaction mixture comprising S-tagged human asporin D13 or D14 (10 μl) and TGF-β1 (0.1 μg) were mixed in buffer A (50 mM Tris (pH 7.5), 150 mM NaCl, 1% Triton X-100, complete protease inhibitor cocktail tablets (Roche)) at 4° C. for 1 hour, S-Protein agarose (Novagen, 12.5 μl) was added, and the mixture was further incubated at room temperature for 30 minutes. The precipitated resin was washed with buffer A five times, after which SDS-PAGE was performed under reducing conditions. S-tagged human asporin in the precipitate was detected by Western blotting using streptavidin-HRP (R&D Systems), and TGF-β1 was detected by Western blotting using biotinylated anti-TGF-β1 antibody (Genzyme). As a result of an examination of the binding of human asporin and TGF-β by the method described above, a band of TGF-β1 was detected in the precipitate comprising S-tagged human asporin D13 or D14 (FIG. 17).
Using the recombinant mouse asporin purified by the method described in Example 31, its capability of binding with TGF-β1 was examined by the method described in Example 22 (pull-down assay method); as a result, it was confirmed that TGF-β1 was detected in the precipitate of purified mouse asporin (FIG. 26).

[3] = biological target: T1, type I collagen (Homo sapiens, UniProt P02452+P08123); experiment: Binding assay of asporin and collagen (type I); conditions: 37° C., 5 hours, precipitate, Western blotting
T1 construct: purchased Nitta Gelatin Inc. 1-C
T1 sequence (P02452 162-1218 limits assumed): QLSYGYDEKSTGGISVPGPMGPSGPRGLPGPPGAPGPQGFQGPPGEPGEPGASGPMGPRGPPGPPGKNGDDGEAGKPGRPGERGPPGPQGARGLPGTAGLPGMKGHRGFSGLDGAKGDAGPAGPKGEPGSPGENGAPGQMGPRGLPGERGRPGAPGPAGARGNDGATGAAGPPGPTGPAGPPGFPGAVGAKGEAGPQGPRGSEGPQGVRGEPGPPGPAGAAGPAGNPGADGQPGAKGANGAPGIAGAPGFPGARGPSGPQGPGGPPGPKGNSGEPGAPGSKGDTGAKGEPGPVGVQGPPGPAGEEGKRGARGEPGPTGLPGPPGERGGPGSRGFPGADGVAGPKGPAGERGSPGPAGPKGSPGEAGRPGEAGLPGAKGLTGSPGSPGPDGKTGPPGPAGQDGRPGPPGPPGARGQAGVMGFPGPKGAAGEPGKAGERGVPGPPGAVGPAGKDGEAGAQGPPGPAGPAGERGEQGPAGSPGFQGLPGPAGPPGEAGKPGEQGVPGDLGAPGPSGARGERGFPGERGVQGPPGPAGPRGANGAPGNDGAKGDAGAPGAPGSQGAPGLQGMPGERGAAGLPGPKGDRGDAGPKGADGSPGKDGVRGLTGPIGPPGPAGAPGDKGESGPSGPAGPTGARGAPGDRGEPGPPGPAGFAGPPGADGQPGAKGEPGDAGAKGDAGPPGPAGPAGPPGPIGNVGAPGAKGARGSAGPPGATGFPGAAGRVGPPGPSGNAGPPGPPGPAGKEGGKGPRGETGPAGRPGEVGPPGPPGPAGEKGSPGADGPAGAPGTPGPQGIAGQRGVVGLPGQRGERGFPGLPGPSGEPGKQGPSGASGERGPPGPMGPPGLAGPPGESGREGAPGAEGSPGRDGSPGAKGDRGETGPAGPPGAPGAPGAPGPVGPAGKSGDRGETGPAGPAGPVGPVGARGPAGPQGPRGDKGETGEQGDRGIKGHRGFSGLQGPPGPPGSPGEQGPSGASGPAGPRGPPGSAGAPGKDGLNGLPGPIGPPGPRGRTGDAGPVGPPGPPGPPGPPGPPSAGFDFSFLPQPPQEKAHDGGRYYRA
T1 sequence (P08123 80-1119 limits assumed): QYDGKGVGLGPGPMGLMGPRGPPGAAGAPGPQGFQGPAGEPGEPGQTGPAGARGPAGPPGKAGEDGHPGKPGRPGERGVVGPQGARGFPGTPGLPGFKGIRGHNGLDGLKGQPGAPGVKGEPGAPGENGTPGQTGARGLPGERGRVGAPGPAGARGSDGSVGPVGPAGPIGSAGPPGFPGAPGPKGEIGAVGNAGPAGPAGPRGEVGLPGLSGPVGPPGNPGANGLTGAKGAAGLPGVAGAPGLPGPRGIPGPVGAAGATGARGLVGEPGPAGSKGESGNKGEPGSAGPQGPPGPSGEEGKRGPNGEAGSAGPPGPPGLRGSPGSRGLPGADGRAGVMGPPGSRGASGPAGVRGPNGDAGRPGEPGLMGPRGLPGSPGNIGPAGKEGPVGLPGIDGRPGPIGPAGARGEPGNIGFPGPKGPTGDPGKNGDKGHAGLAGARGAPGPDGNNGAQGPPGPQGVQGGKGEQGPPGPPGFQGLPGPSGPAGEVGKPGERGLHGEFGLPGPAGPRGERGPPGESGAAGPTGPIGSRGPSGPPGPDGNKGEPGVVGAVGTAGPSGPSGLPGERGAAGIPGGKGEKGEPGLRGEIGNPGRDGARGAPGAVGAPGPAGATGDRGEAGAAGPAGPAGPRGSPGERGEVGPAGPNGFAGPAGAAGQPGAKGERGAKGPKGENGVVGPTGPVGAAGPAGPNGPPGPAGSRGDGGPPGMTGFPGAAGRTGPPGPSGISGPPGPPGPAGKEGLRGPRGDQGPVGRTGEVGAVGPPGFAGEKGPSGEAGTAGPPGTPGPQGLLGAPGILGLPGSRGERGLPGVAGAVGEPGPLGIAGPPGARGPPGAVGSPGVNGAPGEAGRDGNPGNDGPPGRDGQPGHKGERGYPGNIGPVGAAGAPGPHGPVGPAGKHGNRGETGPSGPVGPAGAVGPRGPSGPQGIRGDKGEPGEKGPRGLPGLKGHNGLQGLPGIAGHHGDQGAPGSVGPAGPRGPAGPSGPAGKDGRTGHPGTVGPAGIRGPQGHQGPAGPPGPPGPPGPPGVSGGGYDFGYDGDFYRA
Description: (§1) A binding assay of asporin and collagen was performed by the method described below. As a collagen an acid-soluble type II collagen solution (KOKEN, 3 mg/ml) and an acid-soluble type I collagen solution (1-C: Nitta Gelatin Inc., 3 mg/ml) were used. A reaction mixture comprising 5 μl of an acid-soluble collagen solution (3 mg/ml), 5 μl of an S-tagged human asporin reaction mixture prepared by the method described in Example, and 90 μl of PBS, was prepared, and incubated at 37° C. for 5 hours. This reaction mixture was centrifuged (10,000 rpm, 5 minutes, 4° C.), after which the precipitate was washed with PBS three times. The washed precipitate was dissolved in 20 μl of a sample buffer (comprising 1 μl of 2-mercaptoethanol), after which SDS-PAGE was performed, and Western blotting was performed using streptavidin-HRP. As a result, S-tagged human asporin D13 and D14 bound to both type II collagen and type I collagen (FIG. 21a).

[4] = tested on: type II collagen; experiment: Binding assay of asporin and collagen (type II); conditions: 37° C., 5 hours, precipitate, Western blotting
Sequence of type II collagen (P02458 182-1241 limits assumed): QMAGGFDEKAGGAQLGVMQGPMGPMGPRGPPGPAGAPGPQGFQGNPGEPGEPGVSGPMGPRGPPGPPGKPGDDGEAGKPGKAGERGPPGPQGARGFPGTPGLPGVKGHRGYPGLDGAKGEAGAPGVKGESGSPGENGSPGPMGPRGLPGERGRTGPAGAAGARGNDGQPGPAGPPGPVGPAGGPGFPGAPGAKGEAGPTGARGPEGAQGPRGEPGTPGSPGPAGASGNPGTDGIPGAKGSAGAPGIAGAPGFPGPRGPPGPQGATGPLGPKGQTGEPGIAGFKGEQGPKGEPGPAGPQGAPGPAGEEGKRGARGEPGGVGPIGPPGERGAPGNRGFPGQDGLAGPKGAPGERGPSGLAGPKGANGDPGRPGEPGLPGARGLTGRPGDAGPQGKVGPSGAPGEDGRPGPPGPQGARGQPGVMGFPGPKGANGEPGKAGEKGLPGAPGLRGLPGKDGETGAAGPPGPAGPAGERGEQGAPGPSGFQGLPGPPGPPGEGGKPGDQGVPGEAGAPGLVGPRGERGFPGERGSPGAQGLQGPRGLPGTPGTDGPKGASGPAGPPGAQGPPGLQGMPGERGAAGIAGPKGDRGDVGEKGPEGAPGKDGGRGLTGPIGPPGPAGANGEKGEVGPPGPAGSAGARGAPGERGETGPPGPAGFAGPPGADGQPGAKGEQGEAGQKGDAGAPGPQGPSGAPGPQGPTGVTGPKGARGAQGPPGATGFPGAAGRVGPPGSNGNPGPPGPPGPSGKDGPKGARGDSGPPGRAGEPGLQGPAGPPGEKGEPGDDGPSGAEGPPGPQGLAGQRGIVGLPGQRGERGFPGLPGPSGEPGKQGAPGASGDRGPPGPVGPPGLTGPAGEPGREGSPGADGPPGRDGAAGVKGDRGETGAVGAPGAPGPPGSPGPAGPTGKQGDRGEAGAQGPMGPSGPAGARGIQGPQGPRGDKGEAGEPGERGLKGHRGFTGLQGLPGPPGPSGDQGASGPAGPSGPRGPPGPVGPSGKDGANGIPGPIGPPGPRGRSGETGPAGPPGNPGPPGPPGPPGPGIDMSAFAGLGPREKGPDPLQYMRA
Description: as §1

[5] = tested on: ATDC5 cell lines that transiently express human asporin; experiment: TGF-β1-stimulated aggrecan and type II collagen gene expression in ATDC5 transiently expressing human asporin; assay type: cell-based, mouse; conditions: transient expression
Description: ATDC5 cells were inoculated to a 12-well plate at 0.5×10^5 cells/well, and cultured in a medium 1-2 (DMEM/F12 medium containing 5% FBS, ITS (Sigma), penicillin (100 U/ml) and streptomycin (100 μg/ml)). 24 hours later, pcDNA3.1-ASP13 or pcDNA3.1-ASP14 were introduced using FuGENE-6 (Roche), and the cells were cultured for 24 hours. Next, the medium was exchanged with a medium 1-2 containing 0.2% FBS, and the cells were cultured for 12 hours, after which TGF-β1 (10 ng/ml) was added, and the cells were further cultured for 18 hours, after which total RNA extraction, purification, cDNA synthesis, and real-time PCR were performed in the same manner as Example 18. As a result, the elevation of the TGF-β1-stimulated expression levels of the aggrecan and type II collagen genes was suppressed in the ATDC5 cells allowed to transiently express human asporin D13 or D14 compared to mock (FIG. 14).
First, the expression level of the aggrecan gene elevated by TGF-β1 stimulation in mock is written as (AM), and the expression level of the type II collagen gene at the same time is written as (CM). Next, the TGF-β1-stimulated aggrecan gene expression level suppressed by the forced expression of asporin D13 is written as (A13), and the type II collagen gene expression level at the same time is written as (C13). […] Thus, the suppression rate of the TGF-β1-stimulated aggrecan gene expression in the asporin D13 expressing line can be expressed as (A13)/(AM), and the suppression rate of the type II collagen gene expression as (C13)/(CM). Likewise, the suppression rate of the TGF-β1-stimulated aggrecan gene expression in the asporin D14 expressing line can be expressed as (A14)/(AM), and the suppression rate of the type II collagen gene expression as (C14)/(CM). Furthermore, by making a correction by dividing these values by the human asporin mRNA content obtained with TGF-β1 stimulation, the suppression rate of the aggrecan and type II collagen gene expression per human asporin mRNA content were calculated. […]

Molecule	growth of ATDC5 cells (MTT, OD550) [1]	binding to TGF-β1 (pull-down) [2]	binding to type I collagen [3]	binding to type II collagen [4]	suppressive action on the TGF-β1-stimulated expression of COL2A1 compared with D14 [5]
bFGF: growth factor added to ATDC5 cells and coated on microplate [reference compound]	suppressed the growth of ATDC5 cells concentration-dependently				
B1		bound to TGF-β1 in vitro	bound	bound	
B2		bound to TGF-β1 in vitro	bound	bound	
B3					significantly weaker than that of D14
B4					significantly weaker than that of D14
B5			did not bind	did not bind	

Source: patent publication US20090075921A1, “Bone/joint disease sensitivity gene and use thereof” (Riken, priority 2004, published 2009)
